The values that follow come from article PMC5599688.

The target of test [1] is GFP-tagged III-IV linker of rat Cav3.2 without exon 25, wild type (rat). As to the kind of experiment: co-IP; tsA-201 cells 72 h after transfection, NP40 lysis buffer; precipitated with anti-GFP (GFP-tagged Cav3.2 regions), blotted with anti-mCherry; densitometry normalised to expression levels.
Test [2] deals with GFP-tagged III-IV linker of rat Cav3.2 with exon 25, GAERS mutation R1584P (rat). The test is described as above.
Test [3] concerns the target GFP-tagged III-IV linker of rat Cav3.2 without exon 25, GAERS mutation R1584P (rat). The description is as above.
For test [4], the target named is GFP-tagged III-IV linker of human Cav3.2 with R1573P (human) (UniProt O95180). Described as above.
Chain of UniProt O95180 (O95180 whole entry R1573P): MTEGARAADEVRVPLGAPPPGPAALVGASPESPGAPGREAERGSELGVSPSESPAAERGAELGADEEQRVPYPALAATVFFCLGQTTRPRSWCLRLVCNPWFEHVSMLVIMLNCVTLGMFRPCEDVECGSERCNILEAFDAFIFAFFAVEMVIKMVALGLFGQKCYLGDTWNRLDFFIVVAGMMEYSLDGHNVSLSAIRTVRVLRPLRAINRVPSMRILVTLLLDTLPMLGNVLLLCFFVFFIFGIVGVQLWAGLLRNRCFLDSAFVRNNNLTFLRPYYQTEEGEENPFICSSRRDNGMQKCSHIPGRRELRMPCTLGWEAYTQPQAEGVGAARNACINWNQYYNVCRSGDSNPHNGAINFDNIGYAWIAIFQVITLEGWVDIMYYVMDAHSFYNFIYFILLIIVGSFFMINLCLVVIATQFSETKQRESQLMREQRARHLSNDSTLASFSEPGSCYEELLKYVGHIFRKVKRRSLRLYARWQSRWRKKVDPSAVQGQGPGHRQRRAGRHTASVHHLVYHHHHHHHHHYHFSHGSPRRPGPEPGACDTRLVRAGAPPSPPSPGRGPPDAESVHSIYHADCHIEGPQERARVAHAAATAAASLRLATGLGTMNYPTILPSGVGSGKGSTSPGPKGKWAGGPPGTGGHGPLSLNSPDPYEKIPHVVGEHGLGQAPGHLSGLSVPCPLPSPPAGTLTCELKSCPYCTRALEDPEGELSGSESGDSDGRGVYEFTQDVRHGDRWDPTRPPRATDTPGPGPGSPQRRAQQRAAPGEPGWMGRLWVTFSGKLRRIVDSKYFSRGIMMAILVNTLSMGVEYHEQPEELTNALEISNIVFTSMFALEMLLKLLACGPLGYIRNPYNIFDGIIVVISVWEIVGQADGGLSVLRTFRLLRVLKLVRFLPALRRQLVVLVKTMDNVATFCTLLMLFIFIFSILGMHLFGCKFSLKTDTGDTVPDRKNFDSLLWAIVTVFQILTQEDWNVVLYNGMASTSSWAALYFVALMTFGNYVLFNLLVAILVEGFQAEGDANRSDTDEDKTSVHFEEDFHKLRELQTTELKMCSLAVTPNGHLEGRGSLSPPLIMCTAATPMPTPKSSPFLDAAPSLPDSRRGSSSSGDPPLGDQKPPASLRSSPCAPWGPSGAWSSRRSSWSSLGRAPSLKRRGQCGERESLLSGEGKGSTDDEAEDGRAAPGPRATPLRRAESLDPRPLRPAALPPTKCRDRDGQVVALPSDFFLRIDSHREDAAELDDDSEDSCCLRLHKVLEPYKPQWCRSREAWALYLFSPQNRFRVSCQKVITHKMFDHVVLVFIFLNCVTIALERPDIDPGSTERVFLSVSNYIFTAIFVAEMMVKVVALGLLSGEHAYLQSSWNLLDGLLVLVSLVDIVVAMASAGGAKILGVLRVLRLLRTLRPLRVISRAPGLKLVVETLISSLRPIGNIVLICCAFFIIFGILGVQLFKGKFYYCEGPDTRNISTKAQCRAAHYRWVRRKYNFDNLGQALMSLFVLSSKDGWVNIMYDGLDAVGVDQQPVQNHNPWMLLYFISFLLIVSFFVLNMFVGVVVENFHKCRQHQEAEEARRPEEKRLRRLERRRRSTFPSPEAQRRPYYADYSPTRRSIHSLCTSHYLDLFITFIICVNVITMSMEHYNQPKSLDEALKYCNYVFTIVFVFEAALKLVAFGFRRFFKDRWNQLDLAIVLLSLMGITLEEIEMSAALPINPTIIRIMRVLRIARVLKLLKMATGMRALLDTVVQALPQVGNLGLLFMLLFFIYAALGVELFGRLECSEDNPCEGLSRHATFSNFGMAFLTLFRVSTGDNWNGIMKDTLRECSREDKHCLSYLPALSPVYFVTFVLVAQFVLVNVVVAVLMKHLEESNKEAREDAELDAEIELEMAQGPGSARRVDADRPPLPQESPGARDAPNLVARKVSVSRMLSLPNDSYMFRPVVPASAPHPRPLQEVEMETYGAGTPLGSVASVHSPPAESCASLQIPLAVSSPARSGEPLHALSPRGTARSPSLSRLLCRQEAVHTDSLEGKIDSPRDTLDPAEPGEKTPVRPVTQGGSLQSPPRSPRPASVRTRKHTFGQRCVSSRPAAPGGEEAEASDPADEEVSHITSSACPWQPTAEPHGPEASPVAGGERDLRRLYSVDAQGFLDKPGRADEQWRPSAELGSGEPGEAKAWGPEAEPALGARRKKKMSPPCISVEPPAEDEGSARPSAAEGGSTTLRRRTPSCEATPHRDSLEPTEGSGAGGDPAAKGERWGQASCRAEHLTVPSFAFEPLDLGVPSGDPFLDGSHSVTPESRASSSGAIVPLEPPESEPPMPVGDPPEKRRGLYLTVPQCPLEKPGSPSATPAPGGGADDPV
The target of test [5] is calnexin (rat brain) (rat (endogenous in brain)) (UniProt P35565). As to the kind of experiment: co-IP; 10% rat brain homogenate (also NEC versus GAERS brain) in 50 mM TrisHCl pH 8.0, 300 mM NaCl, 0.5% Triton X100, 0.5% DOC; rabbit polyclonal anti-CNX overnight at 4 °C, Sepharose G beads; blotted for Cav3.2; signal normalised to precipitated calnexin.
Chain of UniProt P35565 (P35565 21-591): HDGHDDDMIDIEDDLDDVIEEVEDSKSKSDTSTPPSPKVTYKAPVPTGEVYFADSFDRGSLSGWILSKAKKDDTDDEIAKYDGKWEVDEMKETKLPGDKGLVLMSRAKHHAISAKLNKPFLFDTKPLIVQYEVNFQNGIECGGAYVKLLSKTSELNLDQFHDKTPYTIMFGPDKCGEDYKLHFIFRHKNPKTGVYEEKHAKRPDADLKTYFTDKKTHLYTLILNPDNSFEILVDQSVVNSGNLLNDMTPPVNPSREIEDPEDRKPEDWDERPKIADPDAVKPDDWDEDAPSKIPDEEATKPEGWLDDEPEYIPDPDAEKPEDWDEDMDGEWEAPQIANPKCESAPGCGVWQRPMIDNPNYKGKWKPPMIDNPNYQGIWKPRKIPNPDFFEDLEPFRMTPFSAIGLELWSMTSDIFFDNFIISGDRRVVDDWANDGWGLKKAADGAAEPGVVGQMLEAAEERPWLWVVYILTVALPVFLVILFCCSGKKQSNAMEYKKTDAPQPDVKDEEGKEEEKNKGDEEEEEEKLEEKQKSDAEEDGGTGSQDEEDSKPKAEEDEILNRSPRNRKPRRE
For test [6], the target named is calnexin in tsA-201 cells (not stated (endogenous human in tsA-201, or transfected mouse cDNA)) (UniProt P27824).
Chain of UniProt P27824 (P27824 21-592): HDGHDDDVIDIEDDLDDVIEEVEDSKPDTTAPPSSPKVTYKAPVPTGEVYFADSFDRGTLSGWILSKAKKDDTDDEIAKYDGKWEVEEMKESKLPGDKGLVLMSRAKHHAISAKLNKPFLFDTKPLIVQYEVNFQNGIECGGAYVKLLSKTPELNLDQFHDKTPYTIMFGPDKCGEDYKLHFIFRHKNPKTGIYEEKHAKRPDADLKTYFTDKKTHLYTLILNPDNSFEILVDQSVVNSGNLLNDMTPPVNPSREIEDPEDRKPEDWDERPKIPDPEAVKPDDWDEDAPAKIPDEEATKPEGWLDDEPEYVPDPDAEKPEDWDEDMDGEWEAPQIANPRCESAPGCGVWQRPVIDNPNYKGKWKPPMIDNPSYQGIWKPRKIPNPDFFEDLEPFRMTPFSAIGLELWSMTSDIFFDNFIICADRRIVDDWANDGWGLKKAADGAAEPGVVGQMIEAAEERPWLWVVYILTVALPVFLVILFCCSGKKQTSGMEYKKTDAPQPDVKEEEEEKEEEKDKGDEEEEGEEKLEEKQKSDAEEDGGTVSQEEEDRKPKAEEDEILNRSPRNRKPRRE

Regarding “mCherry-tagged calnexin lacking the luminal domain (CNX^BD) (from UniProt P35564 483-591) (domain or fragment)”, the decrease of binding against wild-type rIII-IV (+25) in test [1] amounted to 75%; in test [2] it was 82%. Besides, the additional decrease of binding (reference unclear: printed as against wild-type rIII-IV (+25)) in test [3] came to 69%. The decrease of co-immunoprecipitated calnexin C-tail against the wild-type III-IV linker in test [4] stood at 70%.
Substance “Cav3.2 T-type calcium channel of GAERS brain (R1584P), Q9EQ60 1-2359” had a decrease of Cav3.2 co-immunoprecipitated with calnexin, GAERS against NEC brain in test [5] of 42%.
For the substance “HA-tagged human Cav3.2 channel, O95180 1-2353”, in test [6], the mean peak Ba2+ current density at −20 mV, tsA-201 cells expressing HA-hCav3.2 with the soluble calnexin C-tail CNX^CD against control cells (increase) is 76% and the surface expression of HA-tagged Cav3.2 by immunostaining, tsA-201 cells expressing the calnexin C-tail CNX^CD against control cells (increase) came to 30%.
